This experiment concerns the target human Kv2.1 (human) (UniProt Q14721). Put plainly: cell-based or functional assay.

human Kv2.1 (from UniProt Q14721 1-858): the V0.5 of the activation voltage curve (Boltzmann fit of G/Gmax), whole-cell patch clamp on CHO cells amounted to 10.8 mV and the inactivation time constant of the outward current, whole-cell patch clamp on CHO cells was determined as 7.17 ms.

Values taken from patent US6984501.
